We go through 28 molecules from patent US20260263646A1 (ENLAZA THERAPEUTICS, published 2026).

To fix the notation:
B1: C34-FSY (bispecific antibody)
chain: EVQLVESGGGLVQPGGSLTLSCAASRFMISEYSMHWVRQAPGKGLEWVSTINPYGTTDYAESVKGRFTISRDNAKNTLYLQMNSLKPEDTAVYYCDGYGYRGQGTQVTVSSGGGGSGGGGSGGGGSQVQLQESGGGSVEAGGSLRLSCARSGWPYSTYSMNWFRQAPGKEREAVAGISSTMSGIIFAESKAGQFTISQDNAKNTVYLQMNNLKPEDTAIYYCAARRXFSLSSSSDDFDYWGQGTQVTVSSAAAYPYDVPDYGSLPETGGSPSTPPTPSPSTPP
modifications: FSY at the X of the entry (101 of the C24 part)
notes: Biparatopic tandem of two anti-PSMA VHH
B2: C24-101FSY (VHH)
VHH: QVQLQESGGGSVEAGGSLRLSCARSGWPYSTYSMNWFRQAPGKEREAVAGISSTMSGIIFAESKAGQFTISQDNAKNTVYLQMNNLKPEDTAIYYCAARRXFSLSSSSDDFDYWGQGTQVTVSS
modifications: FSY at 101 (X of the entry)
notes: also called C24-FSY
B3: C26-54TYR (VHH)
VHH: EVQLVESGGGLVQPGGSLTLSCAASRFMISEYSMHWVRQAPGKGLEWVSTINPYGTTDYAESVKGRFTISRDNAKNTLYLQMNSLKPEDTAVYYCDGYGYRGQGTQVTVSS
modifications: MC-PEG8-VC-PABC-MMAE on the C-terminal Cys (DAR 1)
B4: C28-101TYR (VHH)
VHH: B2 VHH with X101Y
modifications: MC-PEG8-VC-PABC-MMAE on the C-terminal Cys
B5: C2-100FSY (VHH)
VHH: B3 VHH with Y54A, Y100X
modifications: not fully specified; FSY at 100
notes: plus C-terminal His6
B6: C2-53FSY (VHH)
VHH: B3 VHH with P53X, Y54A
modifications: not fully specified; FSY at 53
notes: plus C-terminal His6
B7: C2-56FSY (VHH)
VHH: B3 VHH with Y54A, T56X
modifications: not fully specified; FSY at 56
notes: plus C-terminal His6
B8: C2-58FSY (VHH)
VHH: B3 VHH with Y54A, D58X
modifications: not fully specified; FSY at 58
notes: plus C-terminal His6
B9: C2-50FSY (VHH)
VHH: B3 VHH with T50X, Y54A
modifications: not fully specified; FSY at 50
notes: plus C-terminal His6
B10: C1-26FSY (VHH)
VHH: QVQLQESGGGSVQAGGSLRLSCTAPXYTDSNYYMSWFRQAPGKEREWVAGVNTGRGSTSYADSVKGRFTISQDNAKNTMFLQMNSLKPEDTAIYYCAVAACHFCDSLPKTQDEYILWGQGTQVTVSS
modifications: not fully specified; FSY at 26
notes: plus C-terminal His6
B11: C1-111FSY (VHH)
VHH: B10 VHH with X26G, Q111X
modifications: not fully specified; FSY at 111
notes: plus C-terminal His6
B12: C1-30FSY (VHH)
VHH: B10 VHH with X26G, S30X
modifications: not fully specified; FSY at 30
notes: plus C-terminal His6
B13: C1-115FSY (VHH)
VHH: B10 VHH with X26G, I115X
modifications: not fully specified; FSY at 115
notes: plus C-terminal His6
B14: C1-110FSY (VHH)
VHH: B10 VHH with X26G, T110X
modifications: not fully specified; FSY at 110
notes: plus C-terminal His6
B15: C1-103FSY (VHH)
VHH: B10 VHH with X26G, F103X
modifications: not fully specified; FSY at 103
notes: plus C-terminal His6
B16: C1-114FSY (VHH)
VHH: B10 VHH with X26G, Y114X
modifications: not fully specified; FSY at 114
notes: plus C-terminal His6
B17: C1-108FSY (VHH)
VHH: B10 VHH with X26G, P108X
modifications: not fully specified; FSY at 108
notes: plus C-terminal His6
B18: C1-105FSY (VHH)
VHH: B10 VHH with X26G, D105X
modifications: not fully specified; FSY at 105
notes: plus C-terminal His6
B19: C1-99FSY (VHH)
VHH: B10 VHH with X26G, A99X
modifications: not fully specified; FSY at 99
notes: plus C-terminal His6
B20: C1-29FSY (VHH)
VHH: B10 VHH with X26G, D29X
modifications: not fully specified; FSY at 29
notes: plus C-terminal His6
B21: C35-TYR (bispecific antibody)
chain: QVQLQESGGGSVEAGGSLRLSCARSGWPYSTYSMNWFRQAPGKEREAVAGISSTMSGIIFAESKAGQFTISQDNAKNTVYLQMNNLKPEDTAIYYCAARRYFSLSSSSDDFDYWGQGTQVTVSSGGGGSGGGGSGGGGSQVQLQESGGGSVEAGGSLRLSCARSGWPYSTYSMNWFRQAPGKEREAVAGISSTMSGIIFAESKAGQFTISQDNAKNTVYLQMNNLKPEDTAIYYCAARRYFSLSSSSDDFDYWGQGTQVTVSSAAAYPYDVPDYGSLPETGGSPSTPPTPSPSTPP
notes: Tandem of two copies of the same VHH
B22: C34-TYR (bispecific antibody)
chain: B1 chain with X227Y
notes: as for B1
B23: C24-101TYR (VHH)
VHH: B2 VHH with X101Y
B24: C3-107FSY (VHH)
VHH: B2 VHH with X101D, F102Y, S107X
modifications: not fully specified; FSY at 107
notes: plus C-terminal His6; tested as cell lysate
B25: C3-103FSY (VHH)
VHH: B2 VHH with X101D, F102Y, S103X
modifications: not fully specified; FSY at 103
notes: as for B24
B26: C3-101FSY (VHH)
VHH: B2 VHH with F102Y
modifications: not fully specified; FSY at 101
notes: plus C-terminal His6
B27: C3-62FSY (VHH)
VHH: B2 VHH with E62X, X101D, F102Y
modifications: not fully specified; FSY at 62
notes: as for B24
B28: C3-58FSY (VHH)
VHH: B2 VHH with I58X, X101D, F102Y
modifications: not fully specified; FSY at 58
notes: as for B24

Positions count from the first letter of the chain named.

T1 sequence (Q04609 whole entry): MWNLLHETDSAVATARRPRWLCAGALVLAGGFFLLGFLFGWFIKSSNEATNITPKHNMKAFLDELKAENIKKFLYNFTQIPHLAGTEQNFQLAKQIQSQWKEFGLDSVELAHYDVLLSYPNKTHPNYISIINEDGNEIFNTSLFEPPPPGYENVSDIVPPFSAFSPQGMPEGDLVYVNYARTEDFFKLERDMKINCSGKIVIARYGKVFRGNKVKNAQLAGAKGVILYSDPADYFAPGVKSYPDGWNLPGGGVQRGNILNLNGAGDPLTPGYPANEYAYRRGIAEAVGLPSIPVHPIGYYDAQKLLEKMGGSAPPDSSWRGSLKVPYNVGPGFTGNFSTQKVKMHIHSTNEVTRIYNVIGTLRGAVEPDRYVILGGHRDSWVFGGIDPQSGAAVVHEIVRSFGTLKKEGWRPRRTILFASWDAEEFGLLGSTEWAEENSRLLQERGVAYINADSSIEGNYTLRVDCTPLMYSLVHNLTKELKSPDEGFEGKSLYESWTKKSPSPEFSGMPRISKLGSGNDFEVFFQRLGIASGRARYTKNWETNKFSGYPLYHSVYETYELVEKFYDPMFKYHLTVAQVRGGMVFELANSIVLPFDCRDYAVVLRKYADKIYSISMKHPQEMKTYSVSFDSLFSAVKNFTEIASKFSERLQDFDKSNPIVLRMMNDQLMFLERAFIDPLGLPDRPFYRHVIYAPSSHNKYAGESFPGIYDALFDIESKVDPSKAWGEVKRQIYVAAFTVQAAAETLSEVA
Sequence of PSMA on PC3pip cells (Q04609 whole entry): as above

One assay addresses T1, PSMA on LNCaP cells (human, UniProt Q04609 1-750).
T1 construct: whole, on cells; also called LNCaP (PSMA+)
As to the kind of experiment: western blot, LNCaP cells, 0.1 nM, 6 h.
For the molecule B1, the “Crosslinked PSMA (Total PSMA %)” value amounted to 3.2%.

Take B2: the “Crosslinked PSMA (Total PSMA %)” value was 0%.

The next assay concerns the target PSMA on PC3pip cells (UniProt Q04609 1-750, limits assumed). The assay can be described thus: cell-based or functional assay.
Turning to B3, the “IC50 PC3pip (M), cell viability by CellTiter-Glo after 4 days” value stood at 3.36e-09 M.

For the molecule B4, the “IC50 PC3pip (M), cell viability by CellTiter-Glo after 4 days” value was determined as 8.47e-08 M.

In the next assay the target is T1, PSMA on LNCaP cells. The assay can be described thus: western blot, LNCaP cells, 1.0 nM, 1 h.
B1: the “Crosslinked PSMA (Total PSMA %)” value was 14.8%.

For B2, the “Crosslinked PSMA (Total PSMA %)” value was determined as 0%.

The target of another assay is T1, PSMA on LNCaP cells. The assay can be described thus: western blot, LNCaP cells, 1.0 nM, 6 h.
Turning to B1, the “Crosslinked PSMA (Total PSMA %)” value was 21.5%.

As for B2, the “Crosslinked PSMA (Total PSMA %)” value was found to be 2.4%.

The next assay addresses T1, PSMA on LNCaP cells. As to the kind of experiment: western blot, LNCaP cells, 10.0 nM, 6 h.
For B1, the “Crosslinked PSMA (Total PSMA %)” value came to 78.7%.

Consider B2, for which the “Crosslinked PSMA (Total PSMA %)” value amounted to 28.4%.

The target of a further assay is T2, PSMA (commercial, Sino Bio cat #15877-H07H) (UniProt Q04609 44-750).
T2 construct: also called receptor
T2 sequence (Q04609 44-750 limits assumed): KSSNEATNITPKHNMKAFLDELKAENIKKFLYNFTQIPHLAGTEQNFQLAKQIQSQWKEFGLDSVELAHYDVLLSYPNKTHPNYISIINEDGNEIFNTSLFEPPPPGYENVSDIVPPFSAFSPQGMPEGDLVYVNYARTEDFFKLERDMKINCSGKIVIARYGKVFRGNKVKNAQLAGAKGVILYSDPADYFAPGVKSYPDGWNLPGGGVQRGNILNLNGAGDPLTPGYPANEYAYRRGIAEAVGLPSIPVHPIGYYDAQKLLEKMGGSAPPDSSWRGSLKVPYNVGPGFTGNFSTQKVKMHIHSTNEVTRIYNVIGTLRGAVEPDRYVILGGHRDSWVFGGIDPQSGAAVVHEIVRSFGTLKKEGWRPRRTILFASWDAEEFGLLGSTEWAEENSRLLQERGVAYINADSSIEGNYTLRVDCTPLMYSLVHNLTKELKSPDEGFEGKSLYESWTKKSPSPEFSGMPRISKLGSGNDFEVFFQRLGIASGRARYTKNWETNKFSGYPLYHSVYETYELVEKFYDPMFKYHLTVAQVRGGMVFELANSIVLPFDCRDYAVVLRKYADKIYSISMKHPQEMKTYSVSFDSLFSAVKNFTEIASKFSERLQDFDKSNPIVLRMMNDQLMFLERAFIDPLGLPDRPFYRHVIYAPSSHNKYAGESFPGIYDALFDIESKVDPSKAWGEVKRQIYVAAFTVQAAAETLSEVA
The assay can be described thus: SDS-PAGE, 37C, ~8:1 sdAb:PSMA.
Molecule B5 had a crosslinking efficiency of under 50%.

B6 registered a crosslinking efficiency of over 50%.

With B7, the crosslinking efficiency is under 50%.

With B8, the crosslinking efficiency was over 50%.

For B9, the crosslinking efficiency was over 50%.

For the next assay, the target named is T2, PSMA (commercial, Sino Bio cat …). As to the kind of experiment: SDS-PAGE, overnight 37C, ~7:1 sdAb:PSMA.
Turning to B10, the crosslinking efficiency is under 50%.

For B11, the crosslinking efficiency was under 50%.

As to B12, the crosslinking efficiency is over 50%.

B13 had a crosslinking efficiency of under 50%.

Regarding B14, the crosslinking efficiency is under 50%.

As to B15, the crosslinking efficiency is under 50%.

B16 yielded a crosslinking efficiency of under 50%.

In turn, B17 displayed a crosslinking efficiency of under 50%.

Consider B18, for which the crosslinking efficiency was under 50%.

Molecule B19 showed a crosslinking efficiency of under 50%.

B20 displayed a crosslinking efficiency of over 50%.

The target of the next assay is T1, PSMA on LNCaP cells. As to the kind of experiment: western blot, LNCaP cells, 100.0 nM, 6 h.
On to B1, for which the “Crosslinked PSMA (Total PSMA %)” value was 87.1%.

As to B2, the “Crosslinked PSMA (Total PSMA %)” value is 71%.

The target in another assay is T1, PSMA on LNCaP cells. As to the kind of experiment: western blot, LNCaP cells, 1000.0 nM, 6 h.
As to B1, the “Crosslinked PSMA (Total PSMA %)” value worked out at 89.9%.

As to B2, the “Crosslinked PSMA (Total PSMA %)” value was 75.8%.

The next assay deals with T1, PSMA on LNCaP cells. The assay can be described thus: western blot, LNCaP cells, 0.1 nM, 1 h.
Take B1: the “Crosslinked PSMA (Total PSMA %)” value was 0%.

As for B2, the “Crosslinked PSMA (Total PSMA %)” value was found to be 0%.

A further assay deals with T1, PSMA on LNCaP cells. As to the kind of experiment: western blot, LNCaP cells, 1000.0 nM, 1 h.
As for B1, the “Crosslinked PSMA (Total PSMA %)” value was 70.4%.

As to B2, the “Crosslinked PSMA (Total PSMA %)” value was determined as 41.4%.

The target of another assay is T1, PSMA on LNCaP cells. As to the kind of experiment: flow cytometry on LNCaP cells.
In turn, B21 yielded an EC50 of 12.3 nM.

As to B22, the EC50 stood at 2.3 nM.

B23 registered an EC50 of over 500 nM.

The next assay addresses T2, PSMA (commercial, Sino Bio cat …). As to the kind of experiment: SDS-PAGE, lysate + PSMA, 3 h 37C.
Regarding B24, the crosslinking efficiency is under 50%.

For the molecule B25, the crosslinking efficiency was under 50%.

For the molecule B26, the crosslinking efficiency is under 50%.

B27: the crosslinking efficiency is over 50%.

In the case of B28, the crosslinking efficiency is over 50%.

For the next assay, the target named is T1, PSMA on LNCaP cells. The assay can be described thus: western blot, LNCaP cells, 10.0 nM, 1 h.
In the case of B1, the “Crosslinked PSMA (Total PSMA %)” value came out at 56.9%.

For the molecule B2, the “Crosslinked PSMA (Total PSMA %)” value came to 4.6%.

Another assay concerns the target T1, PSMA on LNCaP cells. As to the kind of experiment: western blot, LNCaP cells, 100.0 nM, 1 h.
On to B1, for which the “Crosslinked PSMA (Total PSMA %)” value was found to be 63.3%.

With B2, the “Crosslinked PSMA (Total PSMA %)” value came out at 28.5%.
